# Assay results taken from the RNAGym collection of RNA variant scans (doi:10.7554/elife.80360).
# B1: CPEB3 Ribozyme (parent)
# chain: GGGGGCCACAGCAGAAGCGUUCACGUCGCGGCCCCUGUCAGAUUCUGGUGAAUCUGCGAAUUCUGCUGU
# Variants of: B1
# Assay: self-cleavage, relative activity (ratio to wild type); higher = more cleavage; co-transcriptional
row,Variant,self-cleavage
1,C57G C66A,0.308
2,C57G A60U,0.291
3,C57G A60G,0.294
4,C57G U67C,0.428
5,C57G U67G,0.489
6,C57G U67A,0.325
7,U61A U64A,0.54
8,C57U U67G,0.509
9,C57U U67C,0.465
10,C57U U67A,0.365
11,C57G C63A,0.291
12,A59C C63A,0.43
13,A60U U67C,0.471
14,A60U U67A,0.454
15,A60G G68U,0.954
16,G56C G65U,0.512
17,G58U A59C,0.8
18,G58U A59U,0.749
19,A59C U61C,0.446
20,G58C A59C,0.636
21,G58C A59U,0.701

row,Variant,self-cleavage
1,G58C A59G,0.982
2,A60C U61G,0.3
3,A60C U61A,0.472
4,A59U G65U,0.329
5,A59U G65A,0.531
6,A59U G65C,0.497
7,G58U C66A,0.928
8,G58U C66U,1.02
9,A59U G68C,0.941
10,G58C C66A,0.818
11,G58C C66G,0.884
12,A59U U67A,0.805
13,A59U U67C,0.867
14,U61C U69G,0.974
15,U61C U69C,1.02
16,U61A U62C,0.829
17,U61A U62G,0.646
18,G56C U64C,0.637
19,G56C U64A,0.504
20,A59C A60C,0.38
21,A59C A60G,0.535

row,Variant,self-cleavage
1,A60G G65U,0.412
2,A60G G65A,0.373
3,C57U G58C,0.451
4,C57U G58A,0.289
5,C57U G58U,0.42
6,A59G G65U,0.694
7,A59G G65C,0.512
8,A60G C63A,0.429
9,A60G C63U,0.867
10,A60G C63G,0.545
11,U61A G65A,0.519
12,U61A G65U,0.459
13,U61A G65C,0.542
14,G56C U62C,0.524
15,G56C U62A,0.355
16,U61C G68C,0.978
17,U61C G68A,0.924
18,G56C A59U,0.392
19,G58C U69G,1.05
20,G58C U69A,0.998
21,A60U C63G,0.38

row,Variant,self-cleavage
1,A60U C63A,0.391
2,A60U C63U,0.479
3,G56U U62C,0.67
4,G56U U62G,0.563
5,G56U U62A,0.654
6,A60C G68U,0.395
7,A60C G68C,0.392
8,A60U U62C,0.492
9,A60U U62A,0.551
10,C57U A60G,0.39
11,C57U A60C,0.372
12,C57U A60U,0.298
13,G56U G68U,0.985
14,G58U A60U,0.331
15,G58U A60G,0.977
16,C57A U67G,0.445
17,U61A C66G,0.44
18,U61A C66A,0.386
19,A59G U67C,0.976
20,A59G U67G,1.03
